Results as given in the Human Domainome abundance scans (Beltran et al. 2025).
± gives the uncertainty stated by the source.

B1: Zinc finger homeobox protein 4, residues 2183 to 2238; numbered along this chain, Q86UP3 (parent)
chain: SSRTRFTDYQLRVLQDFFDTNAYPKDDEIEQLSTVLNLPTRVIVVWFQNARQKARK

Variants of: B1
Assay: abundance fitness (aPCA) (normalised: wild type 0, dead -1); higher = more abundant; growth selection in yeast, the domain comes from the species named
Conditions: Homo sapiens

| Variant | abundance fitness |
| --- | --- |
| SSRTRFTDYQLRVLQDFFDTNAYPKDDEIEQLSTVLNLPSRVIVVWFQNARQKARK [T40S] | -0.213 ± 0.44 |
| SSRTRFHDYQLRVLQDFFDTNAYPKDDEIEQLSTVLNLPTRVIVVWFQNARQKARK [T7H] | -0.597 ± 0.41 |
| SSRTRFTDYQLRVLQDFFDTNAYPKDDEIEQLSTVLNLPTRVIVVWFQNARQKMRK [A54M] | -0.013 ± 0.2 |
| SSRTRFTDYQLRVLQDFFDTNAYPKDDEIEQLSTVLNLPTRVIVVWFQNARQKVRK [A54V] | -0.053 ± 0.1 |
| SSRTRFTDYQLRVLQDFFDTNAYPKDDEIEQLSTVLNLPTRVIVVWFQNARQKHRK [A54H] | -0.039 ± 0.094 |
| SSRTRFTDYQLRVLRDFFDTNAYPKDDEIEQLSTVLNLPTRVIVVWFQNARQKARK [Q15R] | -0.107 ± 0.082 |
| SSRTRFTDYQLRVLADFFDTNAYPKDDEIEQLSTVLNLPTRVIVVWFQNARQKARK [Q15A] | -0.05 ± 0.082 |
| SSRTRFTDYQLRVLDDFFDTNAYPKDDEIEQLSTVLNLPTRVIVVWFQNARQKARK [Q15D] | -0.072 ± 0.12 |
| SSRTRFTDYQLRVLLDFFDTNAYPKDDEIEQLSTVLNLPTRVIVVWFQNARQKARK [Q15L] | -0.036 ± 0.083 |
| SSRTRFTDYQLRVLQDFFDTNAYPKDDEIEQLSTVLNLPTRVIVVLFQNARQKARK [W46L] | -0.691 ± 0.17 |
| SSRTRFTDYQLRVLQDFFDTNAYPKDDEIEQLSTVLNLPTRVIVVWFQNQRQKARK [A50Q] | -0.113 ± 0.18 |
| SSRTRFTDYQLRVLQDFFDTNAYPKDDEIEQLSTVYNLPTRVIVVWFQNARQKARK [L36Y] | -0.8 ± 0.1 |
| SSRTRFTDYQLRVLQDFFDTNAYPKDDEIEQLSTVCNLPTRVIVVWFQNARQKARK [L36C] | 0.008 ± 0.095 |
| SSRTRYTDYQLRVLQDFFDTNAYPKDDEIEQLSTVLNLPTRVIVVWFQNARQKARK [F6Y] | -0.124 ± 0.1 |
| SSRTRVTDYQLRVLQDFFDTNAYPKDDEIEQLSTVLNLPTRVIVVWFQNARQKARK [F6V] | -0.133 ± 0.078 |
| SSRTRKTDYQLRVLQDFFDTNAYPKDDEIEQLSTVLNLPTRVIVVWFQNARQKARK [F6K] | -0.522 ± 0.17 |
| SSRTRHTDYQLRVLQDFFDTNAYPKDDEIEQLSTVLNLPTRVIVVWFQNARQKARK [F6H] | -0.328 ± 0.11 |
| SSRTRWTDYQLRVLQDFFDTNAYPKDDEIEQLSTVLNLPTRVIVVWFQNARQKARK [F6W] | -0.257 ± 0.13 |
| SSRTRCTDYQLRVLQDFFDTNAYPKDDEIEQLSTVLNLPTRVIVVWFQNARQKARK [F6C] | -0.094 ± 0.095 |
| SSRTRFTDNQLRVLQDFFDTNAYPKDDEIEQLSTVLNLPTRVIVVWFQNARQKARK [Y9N] | 0.057 ± 0.13 |
| SSRTRFTDYQLRVLQDFFDGNAYPKDDEIEQLSTVLNLPTRVIVVWFQNARQKARK [T20G] | -0.041 ± 0.079 |
| SSRTRFTDYQLRVLQDFFDMNAYPKDDEIEQLSTVLNLPTRVIVVWFQNARQKARK [T20M] | -0.101 ± 0.13 |
| SSRTRFTDYQLRVLQDFFDDNAYPKDDEIEQLSTVLNLPTRVIVVWFQNARQKARK [T20D] | -0.205 ± 0.13 |
| SSRTRFTDYQLRVLQDFFDLNAYPKDDEIEQLSTVLNLPTRVIVVWFQNARQKARK [T20L] | -0.205 ± 0.083 |

| Variant | abundance fitness |
| --- | --- |
| SSRTRFTDYQLRVLQDFFDTNAYPKDDEIEQLSSVLNLPTRVIVVWFQNARQKARK [T34S] | -0.066 ± 0.085 |
| SSRTRFTDYQLRVLQDFFDTNAYPKDDEIEQLSTVLNLPTRVSVVWFQNARQKARK [I43S] | -0.766 ± 0.16 |
| SSRTRFTDYQLRVLQDFFDTNAYPKDDEIEQLSTVLNLPTRVQVVWFQNARQKARK [I43Q] | -0.964 ± 0.24 |
| SSRTRFTDYQLRVLQDFFDTNAYPKDDEIEQLSTVLNLPTRVNVVWFQNARQKARK [I43N] | -1.01 ± 0.31 |
| SSRTRFTDYQLRVLQDFFDTNAYPKDDEIEQLSTVLNLPTRVCVVWFQNARQKARK [I43C] | -0.193 ± 0.37 |
| SSRTRFTDYQLRRLQDFFDTNAYPKDDEIEQLSTVLNLPTRVIVVWFQNARQKARK [V13R] | 0.079 ± 0.22 |
| SSRTRFTDYQLRQLQDFFDTNAYPKDDEIEQLSTVLNLPTRVIVVWFQNARQKARK [V13Q] | 0.057 ± 0.21 |
| SSRTRFTDYQLRGLQDFFDTNAYPKDDEIEQLSTVLNLPTRVIVVWFQNARQKARK [V13G] | 0.047 ± 0.22 |
| SSRTRFTDYQLRVLQDFFDTTAYPKDDEIEQLSTVLNLPTRVIVVWFQNARQKARK [N21T] | -0.027 ± 0.13 |
| SSRTRFTDYQLRVLQDFFDTPAYPKDDEIEQLSTVLNLPTRVIVVWFQNARQKARK [N21P] | -0.718 ± 0.17 |
| SLRTRFTDYQLRVLQDFFDTNAYPKDDEIEQLSTVLNLPTRVIVVWFQNARQKARK [S2L] | -0.144 ± 0.098 |
| SKRTRFTDYQLRVLQDFFDTNAYPKDDEIEQLSTVLNLPTRVIVVWFQNARQKARK [S2K] | 0.053 ± 0.19 |
| SIRTRFTDYQLRVLQDFFDTNAYPKDDEIEQLSTVLNLPTRVIVVWFQNARQKARK [S2I] | -0.059 ± 0.13 |
| SSRTRFTDYQLRVLQDFFDTNAYPKDDEIEQLSTVLNLPTRVIVVWFQNARLKARK [Q52L] | -0.121 ± 0.11 |
| SSRTRFTDYQLRVLQDFFDTNAYPKDDEIEQLSTVLNLPTRVIVVWFQNARQAARK [K53A] | 0.145 ± 0.099 |
| SSRTRFTDYQLRVLQDFFDTNAYPKDDEIEQSSTVLNLPTRVIVVWFQNARQKARK [L32S] | -0.924 ± 0.1 |
| SSRTRFTDYQLRVLQDFFDTNAYPKDDEIEQVSTVLNLPTRVIVVWFQNARQKARK [L32V] | -0.235 ± 0.079 |
| SSRTRFTPYQLRVLQDFFDTNAYPKDDEIEQLSTVLNLPTRVIVVWFQNARQKARK [D8P] | 0.096 ± 0.11 |
| SSRTRFTFYQLRVLQDFFDTNAYPKDDEIEQLSTVLNLPTRVIVVWFQNARQKARK [D8F] | -0.361 ± 0.19 |
| SSRTRFTDYQLRVLQDFFDTNIYPKDDEIEQLSTVLNLPTRVIVVWFQNARQKARK [A22I] | -0.065 ± 0.19 |
| SSRTRFTDYQLRVLQDFFDTNGYPKDDEIEQLSTVLNLPTRVIVVWFQNARQKARK [A22G] | -0.186 ± 0.086 |
| SSCTRFTDYQLRVLQDFFDTNAYPKDDEIEQLSTVLNLPTRVIVVWFQNARQKARK [R3C] | 0.484 ± 0.099 |
| SSRTRFTDYQLRVGQDFFDTNAYPKDDEIEQLSTVLNLPTRVIVVWFQNARQKARK [L14G] | -0.876 ± 0.078 |
